Where a chain is given by its changes, count along the chain named.
Columns and labels:
RAJI cells = experiment: JNG assay, co-culture with RAJI cells; format: cell-based; details: JNG cells expressing construct, co-culture with Raji
Method in brief: (§1)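 Jurkat NFAT-GFP (JNG) cells stably transduced with SARs by lentivirus, with drug selection where the construct carried a resistance gene, then co-cultured with target cells at E:T ~1:2 for ~4–18 h. % GFP-positive cells measured by FACS against parental JNG; +/- to 5+ correspond to ~5–50% GFP-positive.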

L363 cells = experiment: JNG assay, co-culture with L363 cells; format: cell-based; details: co-culture with L363
Method in brief: as §1

Nalm6 cells = experiment: JNG assay, co-culture with Nalm6 cells; format: cell-based; details: co-culture with Nalm6
Method in brief: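 Read-out: % GFP-positive cells by flow cytometry after ~4 to 18 h coculture of SAR-transduced JNG cells with targets (E:T about 1:2). Scores reflect GFP induction above parental JNG controls: +/- ≈5%, + ≈10%, up to 5+ ≈50%.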

DAUDI = experiment: JNG assay, co-culture with DAUDI cells; format: cell-based
Description: Cellular supernatant is collected and assayed for the induction of cytokines (e.g., IL2).
JNG (Jurkat cells expressing EGFP under an NFAT promoter) were infected with lentiviral vectors encoding different single chain and multi-chain SARs by spinfection in the presence of 8 µg/ml of Polybrene® (Sigma, Catalog no. H9268). The Jurkat-NFAT-GFP cells are engineered in such a way that the IL-2 promoter, which carries NFAT binding sites, is cloned upstream of the GFP gene. These cells have been used to study signaling via TCR and CAR. The different SARs were stably expressed in Jurkat NFAT-GFP cells by lentiviral mediated gene transfer, followed by selection with puromycin or blasticidin. No drug selection was used in case the construct lacked an antibiotic resistance gene. The SAR-expressing Jurkat-NFAT-GFP cells were cocultured with the target cells at E:T ratio of approximately 1:2 for approximately 4 hours to 18 hours. When the interaction between SIRs and their target antigen results in activation of the NFAT pathway, GFP expression is induced. […] GFP expression was monitored by FACS analysis. The Jurkat-NFAT-GFP (parental) cells were used as control. The structure of different constructs can be determined based on their names. […] The sequence of the other constructs in the table can be similarly determined from their names and by referring to the different Tables of this disclosure that provide the names and SEQ ID NO of the different modules. Alternatively, the composition and modular architecture of the different SAR constructs can be determined from their sequences by bioinformatics tools, including using nucleic acid and amino acids homology searches. A SAR is considered positive in the assay in case the SAR expressing Jurkat-NFAT-GFP cells show greater % GFP positive cells when cultured with the target cell line as compared to parental Jurkat-NFAT-GFP cells. […] In general, the number +/-, +, 2+, 3+, 4+, 5+ refer to approximately 5%, 10%, 20%, 30%, 40% and 50% GFP positive cells. […]

[1] = JNG NFAT-GFP background GFP induction (tonic signaling); details: JNG cells expressing construct, without target
PC3 cells = experiment: JNG NFAT-GFP induction on co-culture with PC3
SKOV3 cells = format: cell-based

B1: 22003 (protein)
chain: MALPVTALLLPLALLLHAARPLEGKPIPNPLLGLDSTGSGEDLKNVFPPEVAVFEPSKAEIAHTQKATLVCLATGFYPDHVELSWWVNGKEVHSGVCTDPQPLKEQPALNDSRYCLSSRLRVSATFWQNPRNHFRCQVQFYGLSENDEWTQDRAKPVTQIVSAEAWGRADCGITSASYHQGVLSATILYEILLGKATLYAVLVSALVLMAMVKRKDSRGRAKRSGSGATNFSLLKQAGDVEENPGPTSTMALPVTALLLPLALLLHAARPQLQLQESGPGLVKPSETLSLTCTVSGDSISSGDYYWGWIRQPPGKGLEWIGHIYYSGVTYYNPSLKSRVTISVDTSRNQFSLKLSSVTAADTAVYYCTREDSSNWRSRGQGTLVTVSSLESGGGGSFEEVQLLESGGGLVQPGGSLRLSCAASGFTFSSYAMSWVRQAPGKGLEWVSSISGSGDYIYYADSVKGRFTISRDISKNTLYLQMNSLRAEDTAVYYCAKEGTGANSSLADYRGQGTLVTVSSTREQKLISEEDGSGIQNPDPAVYQLRDSKSSDKSVCLFTDFDSQTNVSQSKDSDVYITDKCVLDMRSMDFKSNSAVAWSNKSDFACANAFNNSIIPEDTFFPSSDVPCDVKLVEKSFETDTNLNFQNLSVIGFRILLLKVAGFNLLMTLRLWSSRAKRSGSGVKQTLNFDLLKLAGDVESNPGPSRGHMTEYKPTVRLATRDDVPRAVRTLAAAFADYPATRHTVDPDRHIERVTELQELFLTRVGLDIGKVWVADDGAAVAVWTTPESVEAGAVFAEIGPRMAELSGSRLAAQQQMEGLLAPHRPKEPAWFLATVGVSPDHQGKGLGSAVVLPGVEAAERAGVPAFLETSAPRNLPFYERLGFTVTADVEVPEGPRTWCMTRKPGA
Question: Which results are given for B1?
Answer: NFAT-GFP ASSAY: Raji (RAJI cells): + (refer to approximately 5%, 10%, 20%, 30%, 40% and 50% GFP positive cells); NFAT-GFP ASSAY: L363 (L363 cells): + (refer to approximately 5%, 10%, 20%, 30%, 40% and 50% GFP positive cells); NFAT-GFP ASSAY: Nalm6 (Nalm6 cells): +/- (refer to approximately 5%, 10%, 20%, 30%, 40% and 50% GFP positive cells); NFAT-GFP ASSAY: Daudi (DAUDI): +/- (refer to approximately 5%, 10%, 20%, 30%, 40% and 50% GFP positive cells)

B2: 21997 (protein)
chain: MALPVTALLLPLALLLHAARPQLQLQESGPGLVKPSETLALTCNVSGGSISSSSYYWGWIRQPPGKRLEWIGSIYYSGSTYFNPSLKSRVTISVDTSKNQFSLKLSSVTAADTAVYYCAGGDYYGPVGQWPSDYRGQGTLVTVSSLEDLKNVFPPEVAVFEPSEAEISHTQKATLVCLATGFYPDHVELSWWVNGKEVHSGVCTDPQPLKEQPALNDSRYCLSSRLRVSATFWQNPRNHFRCQVQFYGLSENDEWTQDRAKPVTQIVSAEAWGRADCGFTSESYQQGVLSATILYEILLGKATLYAVLVSALVLMAMVKRKDSRGRAKRSGSGATNFSLLKQAGDVEENPGPTSMDWIWRILFLVGAATGAHSFEQVQLVESGGGLVQPGGSLRLSCAASGFTFTNHAMSWVRQAPGKGLELVSSISGNGRTTYYADSVKGRFTISRDISKNTLDLQMNSLRAEDTAVYYCAKDGGETLVDSRGQGTLVTVSSTRIQNPDPAVYQLRDSKSSDKSVCLFTDFDSQTNVSQSKDSDVYITDKCVLDMRSMDFKSNSAVAWSNKSDFACANAFNNSIIPEDTFFPSPESSCDVKLVEKSFETDTNLNFQNLSVIGFRILLLKVAGFNLLMTLRLWSSRAKRSGSGVKQTLNFDLLKLAGDVESNPGPSRGHMTEYKPTVRLATRDDVPRAVRTLAAAFADYPATRHTVDPDRHIERVTELQELFLTRVGLDIGKVWVADDGAAVAVWTTPESVEAGAVFAEIGPRMAELSGSRLAAQQQMEGLLAPHRPKEPAWFLATVGVSPDHQGKGLGSAVVLPGVEAAERAGVPAFLETSAPRNLPFYERLGFTVTADVEVPEGPRTWCMTRKPGA
Question: Which results are given for B2?
Answer: NFAT-GFP ASSAY: L363 (L363 cells): + (refer to approximately 5%, 10%, 20%, 30%, 40% and 50% GFP positive cells); NFAT-GFP ASSAY: Self Activation (SA) [1]: Self Activation

B3: 22004 (protein)
chain: MALPVTALLLPLALLLHAARPLEGKPIPNPLLGLDSTGSGEDLKNVFPPEVAVFEPSKAEIAHTQKATLVCLATGFYPDHVELSWWVNGKEVHSGVCTDPQPLKEQPALNDSRYCLSSRLRVSATFWQNPRNHFRCQVQFYGLSENDEWTQDRAKPVTQIVSAEAWGRADCGITSASYHQGVLSATILYEILLGKATLYAVLVSALVLMAMVKRKDSRGRAKRSGSGATNFSLLKQAGDVEENPGPTSTMALPVTALLLPLALLLHAARPQLQLQESGPGLVKPSETLSLTCTVSGDSISSGDYYWGWIRQPPGKGLEWIGHIYYSGVTYYNPSLKSRVTISVDTSRNQFSLKLSSVTAADTAVYYCTREDSSNWRSRGQGTLVTVSSLESGGGGSFEQVQLVESGGGLVQPGGSLRLSCAASGFTFTNHAMSWVRQAPGKGLELVSSISGNGRTTYYADSVKGRFTISRDISKNTLDLQMNSLRAEDTAVYYCAKDGGETLVDSRGQGTLVTVSSTREQKLISEEDGSGIQNPDPAVYQLRDSKSSDKSVCLFTDFDSQTNVSQSKDSDVYITDKCVLDMRSMDFKSNSAVAWSNKSDFACANAFNNSIIPEDTFFPSSDVPCDVKLVEKSFETDTNLNFQNLSVIGFRILLLKVAGFNLLMTLRLWSSRAKRSGSGVKQTLNFDLLKLAGDVESNPGPSRGHMTEYKPTVRLATRDDVPRAVRTLAAAFADYPATRHTVDPDRHIERVTELQELFLTRVGLDIGKVWVADDGAAVAVWTTPESVEAGAVFAEIGPRMAELSGSRLAAQQQMEGLLAPHRPKEPAWFLATVGVSPDHQGKGLGSAVVLPGVEAAERAGVPAFLETSAPRNLPFYERLGFTVTADVEVPEGPRTWCMTRKPGA
Question: Which “NFAT-GFP ASSAY: Raji” value (RAJI cells) does the source give for B3 here?
Answer: + (refer to approximately 5%, 10%, 20%, 30%, 40% and 50% GFP positive cells)

Question: What about the “NFAT-GFP ASSAY: L363” value (L363 cells) of the same molecule?
Answer: + (refer to approximately 5%, 10%, 20%, 30%, 40% and 50% GFP positive cells)

Question: And the “NFAT-GFP ASSAY: Nalm6” value (Nalm6 cells)?
Answer: +/- (refer to approximately 5%, 10%, 20%, 30%, 40% and 50% GFP positive cells)

Question: And the “NFAT-GFP ASSAY: Daudi” value (DAUDI)?
Answer: +/- (refer to approximately 5%, 10%, 20%, 30%, 40% and 50% GFP positive cells)

B4: 22691 (protein)
chain: MALPVTALLLPLALLLHAARPDIQMTQSPSSLSASVGDRVTITCRASQDISSYLNWYQQKPGKAPKLLIYYTSRLHSGVPSRFSGSGSGTDFTLTISSLQPEDFATYYCQQGNTLPYTFGQGTKVEIKRLEDLKNVFPPEVAVFEPSEAEISHTQKATLVCLATGFYPDHVELSWWVNGKEVHSGVCTDPQPLKEQPALNDSRYCLSSRLRVSATFWQNPRNHFRCQVQFYGLSENDEWTQDRAKPVTQIVSAEAWGRADCGFTSESYQQGVLSATILYEILLGKATLYAVLVSALVLMAMVKRKDSRGRAKRSGSGATNFSLLKQAGDVEENPGPTSMDWIWRILFLVGAATGAHSFEVQLVESGGGLVQPGGSLRLSCAASGFTFSDYFMSWVRQAPGKGLEWVATISNGGTYTYYPDSVKGRFTISRDNSKNTLYLQMNSLRAEDTAVYYCARFDGYIFDYWGQGTLVTVSSTRIQNPDPAVYQLRDSKSSDKSVCLFTDFDSQTNVSQSKDSDVYITDKCVLDMRSMDFKSNSAVAWSNKSDFACANAFNNSIIPEDTFFPSPESSCDVKLVEKSFETDTNLNFQNLSVIGFRILLLKVAGFNLLMTLRLWSSRAKRSGSGVKQTLNFDLLKLAGDVESNPGPSRGHMTEYKPTVRLATRDDVPRAVRTLAAAFADYPATRHTVDPDRHIERVTELQELFLTRVGLDIGKVWVADDGAAVAVWTTPESVEAGAVFAEIGPRMAELSGSRLAAQQQMEGLLAPHRPKEPAWFLATVGVSPDHQGKGLGSAVVLPGVEAAERAGVPAFLETSAPRNLPFYERLGFTVTADVEVPEGPRTWCMTRKPGA
Question: For B4, which “NFAT-GFP ASSAY: PC-3” value (PC3 cells) is on record?
Answer: significant GFP induction

B5: 22687 (protein)
chain: B4 chain with S52N, Y117W, F385Y
Question: With B5 as the molecule, how does the “NFAT-GFP ASSAY: SKOV-3” value (SKOV3 cells) read?
Answer: weaker but sufficient GFP induction

Question: What about the “NFAT-GFP ASSAY: PC-3” value (PC3 cells) of the same molecule?
Answer: none to negligible GFP induction

B6: 22694 (protein)
chain: B4 chain with S52N, Y117W
Question: Which “NFAT-GFP ASSAY: SKOV-3” value (SKOV3 cells) does the source give for B6 here?
Answer: lowest GFP induction

B7: 22692 (protein)
chain: B4 chain with S52N, Y117W
Question: For B7, which “NFAT-GFP ASSAY: SKOV-3” value (SKOV3 cells) is on record?
Answer: weaker but sufficient GFP induction

Question: What about the “NFAT-GFP ASSAY: PC-3” value (PC3 cells) of the same molecule?
Answer: none to negligible GFP induction

Reference: patent US20230212319A1, “NOVEL ANTIGEN BINDING DOMAINS AND SYNTHETIC ANTIGEN RECEPTORS INCORPORATING THE SAME” (University of Southern California, priority 2020, published 2023)
